Experimental data taken from paper PMC6511879 (Nucleic Acids Research, 2019).

Key:
CtKti12NTD = molecular target: T1, CtKti12NTD (Thermochaetoides thermophila, UniProt G0SHI1); assay: X-ray crystal structure, […] Å; type: binding; settings: bound as ADP·AlF3 with Mg2+, transition state mimic; nucleotide site
T1 sequence (G0SHI1 2-252): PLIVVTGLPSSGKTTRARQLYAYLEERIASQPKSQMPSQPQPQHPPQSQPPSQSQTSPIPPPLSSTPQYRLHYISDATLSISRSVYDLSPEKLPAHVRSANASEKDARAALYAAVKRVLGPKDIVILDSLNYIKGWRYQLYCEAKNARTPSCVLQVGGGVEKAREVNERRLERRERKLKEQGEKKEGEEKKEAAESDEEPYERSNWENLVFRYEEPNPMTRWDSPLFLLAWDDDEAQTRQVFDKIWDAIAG

[1] = molecular target: T2, CtKti12 (also ChKti12), full length (Thermochaetoides thermophila, UniProt G0SHI1); settings: 1 mM ATP; 2 mM MgCl2; pH 7.5
T2 sequence (G0SHI1 1-378): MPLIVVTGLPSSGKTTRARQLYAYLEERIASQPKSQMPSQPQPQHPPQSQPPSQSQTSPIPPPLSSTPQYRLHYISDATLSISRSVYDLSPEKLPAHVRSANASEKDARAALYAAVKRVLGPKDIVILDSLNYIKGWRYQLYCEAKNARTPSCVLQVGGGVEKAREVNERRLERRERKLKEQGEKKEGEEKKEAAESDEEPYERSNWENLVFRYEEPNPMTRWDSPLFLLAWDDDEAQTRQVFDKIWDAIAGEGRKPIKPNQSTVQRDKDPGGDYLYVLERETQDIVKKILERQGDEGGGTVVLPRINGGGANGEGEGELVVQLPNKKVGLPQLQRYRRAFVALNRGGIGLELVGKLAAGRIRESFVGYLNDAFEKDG

Full length GST-ScElp1 = molecular target: T3, Full length GST-ScElp1 (Saccharomyces cerevisiae, UniProt Q06706 1-1349); assay: pull-down
T3 sequence (looked up): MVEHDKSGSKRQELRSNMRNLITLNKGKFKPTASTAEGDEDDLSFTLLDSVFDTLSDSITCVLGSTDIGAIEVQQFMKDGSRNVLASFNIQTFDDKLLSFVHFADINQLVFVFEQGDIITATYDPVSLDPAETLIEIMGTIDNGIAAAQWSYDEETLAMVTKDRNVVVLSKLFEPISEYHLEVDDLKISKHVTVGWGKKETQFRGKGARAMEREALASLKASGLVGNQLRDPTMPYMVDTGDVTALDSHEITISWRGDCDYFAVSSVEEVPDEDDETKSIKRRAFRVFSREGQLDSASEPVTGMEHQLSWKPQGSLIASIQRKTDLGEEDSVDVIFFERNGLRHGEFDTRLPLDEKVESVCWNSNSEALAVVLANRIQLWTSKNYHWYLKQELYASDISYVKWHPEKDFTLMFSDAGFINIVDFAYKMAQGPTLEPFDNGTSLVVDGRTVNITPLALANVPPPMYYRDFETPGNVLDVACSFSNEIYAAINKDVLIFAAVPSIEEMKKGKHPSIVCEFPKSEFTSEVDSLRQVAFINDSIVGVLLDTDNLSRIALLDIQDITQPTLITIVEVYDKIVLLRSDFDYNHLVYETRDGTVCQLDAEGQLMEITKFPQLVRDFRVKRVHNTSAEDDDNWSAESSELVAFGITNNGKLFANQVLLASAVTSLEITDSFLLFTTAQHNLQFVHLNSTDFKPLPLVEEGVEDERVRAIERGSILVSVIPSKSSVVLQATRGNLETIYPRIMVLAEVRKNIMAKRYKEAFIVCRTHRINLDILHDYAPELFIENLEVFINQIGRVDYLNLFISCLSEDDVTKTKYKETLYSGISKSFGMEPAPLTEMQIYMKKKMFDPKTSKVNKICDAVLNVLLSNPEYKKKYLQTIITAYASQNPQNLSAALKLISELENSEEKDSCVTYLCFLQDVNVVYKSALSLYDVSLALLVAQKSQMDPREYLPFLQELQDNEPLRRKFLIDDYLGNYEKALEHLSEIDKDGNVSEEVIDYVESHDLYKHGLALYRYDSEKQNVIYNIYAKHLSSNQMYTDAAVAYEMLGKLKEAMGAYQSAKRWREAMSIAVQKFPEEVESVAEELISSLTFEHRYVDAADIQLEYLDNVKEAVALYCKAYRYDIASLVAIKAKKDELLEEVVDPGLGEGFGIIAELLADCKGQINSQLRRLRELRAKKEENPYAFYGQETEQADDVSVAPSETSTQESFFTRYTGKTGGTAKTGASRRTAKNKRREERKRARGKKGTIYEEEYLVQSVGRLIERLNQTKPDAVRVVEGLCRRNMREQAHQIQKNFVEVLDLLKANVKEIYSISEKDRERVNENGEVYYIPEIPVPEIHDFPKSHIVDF

[2] = molecular target: T4, GST-ScElp1 first WD40 domain (aa 42-431) (Saccharomyces cerevisiae, UniProt Q06706 42-431); assay: pull-down
T4 sequence (looked up): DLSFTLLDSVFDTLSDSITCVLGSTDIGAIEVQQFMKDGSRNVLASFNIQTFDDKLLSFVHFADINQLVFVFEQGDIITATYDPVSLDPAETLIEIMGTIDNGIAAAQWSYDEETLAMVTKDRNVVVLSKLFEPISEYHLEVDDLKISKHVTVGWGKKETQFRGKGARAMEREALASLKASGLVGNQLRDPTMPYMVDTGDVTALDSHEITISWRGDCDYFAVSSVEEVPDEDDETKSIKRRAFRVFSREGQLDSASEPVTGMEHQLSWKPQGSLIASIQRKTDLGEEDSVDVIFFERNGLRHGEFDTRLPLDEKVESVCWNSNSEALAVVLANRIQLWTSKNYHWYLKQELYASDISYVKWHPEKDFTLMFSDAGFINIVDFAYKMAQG

[3] = molecular target: T5, GST-ScElp1 first and second WD40 domains (aa 1-734) (Saccharomyces cerevisiae, UniProt Q06706 1-734); assay: pull-down
T5 sequence (looked up): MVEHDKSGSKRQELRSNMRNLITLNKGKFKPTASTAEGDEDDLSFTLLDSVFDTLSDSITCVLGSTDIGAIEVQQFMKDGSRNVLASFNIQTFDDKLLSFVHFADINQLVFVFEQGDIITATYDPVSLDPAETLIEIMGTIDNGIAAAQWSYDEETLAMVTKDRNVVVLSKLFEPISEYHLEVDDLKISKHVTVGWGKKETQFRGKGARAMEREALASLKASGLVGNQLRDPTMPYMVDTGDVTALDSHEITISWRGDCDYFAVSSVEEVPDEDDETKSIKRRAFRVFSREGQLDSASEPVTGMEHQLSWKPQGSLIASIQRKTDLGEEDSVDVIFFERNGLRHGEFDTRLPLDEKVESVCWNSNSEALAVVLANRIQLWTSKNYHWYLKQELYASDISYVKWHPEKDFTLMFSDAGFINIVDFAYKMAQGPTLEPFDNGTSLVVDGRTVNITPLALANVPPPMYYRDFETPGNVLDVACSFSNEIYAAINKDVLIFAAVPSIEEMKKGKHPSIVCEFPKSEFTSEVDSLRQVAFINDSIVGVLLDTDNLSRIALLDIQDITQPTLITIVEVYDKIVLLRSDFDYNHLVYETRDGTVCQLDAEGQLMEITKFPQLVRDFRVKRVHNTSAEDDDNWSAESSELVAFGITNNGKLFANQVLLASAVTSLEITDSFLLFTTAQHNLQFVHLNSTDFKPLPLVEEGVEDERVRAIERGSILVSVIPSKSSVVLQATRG

Nc1ncnc2c1ncn2[C@@H]1O[C@H](COP(=O)(O)OP(=O)(O)O)[C@@H](O)[C@H]1O [ADP]
X-ray crystal structure, 2.4 Å (CtKti12NTD): We solved the structure of CtKti12NTD in complex with ADP·AlF3

Nc1ncnc2c1ncn2[C@@H]1O[C@H](COP(=O)(O)OP(=O)(O)OP(=O)(O)O)[C@@H](O)[C@H]1O [ATP]
dTm [1]: addition of ATP contributed to an increased thermostability of CtKti12 and ScKti12 in vitro

B1: ScKti12-6xHis (Saccharomyces cerevisiae Kti12, wild type) (natural protein)
chain: MPLVLFTGYPCSGKTTLAKHLVQLLQSKIDATPSLSKYSITYHSDESLGIKHSDYITSQDERKLRSEIISAVKRDLSKNKIVIVDSLNYIKGFRYQLHCEVKNLSTTFCVIQTLCPPETIFEWNKTSNPNPWEPELLNQLIQRYEEPNSSNRWDSPLFAILTPQDNITDYIDDICKVVFQTSKSAKNSGHNDPLSKGLQKPNSATVLKPASQSNFIQVLDIETSKIIKTIMNHIKSLTSIGGVSNGTRVIVSEGITDINDDGCFFVDLPIGNVVTLAQLQRLKRQFINFNKLRDIDQDRIGPLFADYLNKNLN
binding result (Full length GST-ScElp1): binds | binding result [2]: binds | binding result [3]: binds
